From publication PMC8786643 (iScience, 2022) come the findings set out here.

One data set has as its target T1, mouse Glut12/Slc2a12 (Mus musculus, UniProt Q8BFW9).
T1 construct: full-length wild-type ORF in pEGFP-N1, EGFP-tagged; transient expression in HEK293 cells
T1 sequence (Q8BFW9 1-622): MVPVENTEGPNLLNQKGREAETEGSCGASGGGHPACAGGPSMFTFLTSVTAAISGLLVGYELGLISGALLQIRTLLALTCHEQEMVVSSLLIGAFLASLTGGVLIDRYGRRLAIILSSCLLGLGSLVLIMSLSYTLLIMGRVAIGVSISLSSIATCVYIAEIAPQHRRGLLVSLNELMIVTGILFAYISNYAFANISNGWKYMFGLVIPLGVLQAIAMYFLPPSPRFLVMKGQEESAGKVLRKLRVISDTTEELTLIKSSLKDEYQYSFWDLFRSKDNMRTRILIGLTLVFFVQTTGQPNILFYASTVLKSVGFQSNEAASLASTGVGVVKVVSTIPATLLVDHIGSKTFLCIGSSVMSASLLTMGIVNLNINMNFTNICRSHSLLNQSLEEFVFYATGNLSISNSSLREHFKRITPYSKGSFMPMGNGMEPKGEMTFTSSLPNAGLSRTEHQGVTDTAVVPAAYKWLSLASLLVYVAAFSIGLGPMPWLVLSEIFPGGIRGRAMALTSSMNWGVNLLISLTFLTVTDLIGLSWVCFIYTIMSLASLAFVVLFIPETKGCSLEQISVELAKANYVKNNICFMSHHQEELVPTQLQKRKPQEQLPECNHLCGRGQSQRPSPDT
In words: [[…]-14C]-urate uptake in transiently transfected HEK293 cells. Format: cell-based. To be noted: 10 µM urate, Krebs-Ringer buffer, pH 5.4, 10 min; labelled compound.

Substrate in data set [1]: O=C1O[C@H]([C@@H](O)CO)C(O)=C1O
In words: cells, lysate or membranes. To be noted: Krebs-Ringer buffer, pH 5.4, 37 °C, labelled compound.

As to `O=c1[nH]c(=O)c2[nH]c(=O)[nH]c2[nH]1` [urate], the “[8-14C]-urate uptake in transiently transfected HEK293 cells” value at mouse Glut12/Slc2a12 was “cell-based urate uptake assays using human GLUT12- and mouse Glut12-expressing HEK293 cells were conducted”.

B1: human GLUT12/SLC2A12 (Homo sapiens) (protein)
chain: MVPVENTEGPSLLNQKGTAVETEGSGSRHPPWARGCGMFTFLSSVTAAVSGLLVGYELGIISGALLQIKTLLALSCHEQEMVVSSLVIGALLASLTGGVLIDRYGRRTAIILSSCLLGLGSLVLILSLSYTVLIVGRIAIGVSISLSSIATCVYIAEIAPQHRRGLLVSLNELMIVIGILSAYISNYAFANVFHGWKYMFGLVIPLGVLQAIAMYFLPPSPRFLVMKGQEGAASKVLGRLRALSDTTEELTVIKSSLKDEYQYSFWDLFRSKDNMRTRIMIGLTLVFFVQITGQPNILFYASTVLKSVGFQSNEAASLASTGVGVVKVISTIPATLLVDHVGSKTFLCIGSSVMAASLVTMGIVNLNIHMNFTHICRSHNSINQSLDESVIYGPGNLSTNNNTLRDHFKGISSHSRSSLMPLRNDVDKRGETTSASLLNAGLSHTEYQIVTDPGDVPAFLKWLSLASLLVYVAAFSIGLGPMPWLVLSEIFPGGIRGRAMALTSSMNWGINLLISLTFLTVTDLIGLPWVCFIYTIMSLASLLFVVMFIPETKGCSLEQISMELAKVNYVKNNICFMSHHQEELVPKQPQKRKPQEQLLECNKLCGRGQSRQLSPET
B1: the Km in data set [1] (5 min uptake) was determined as 846 µM.

B2: mouse Glut12/Slc2a12 (Mus musculus) (protein)
chain: MVPVENTEGPNLLNQKGREAETEGSCGASGGGHPACAGGPSMFTFLTSVTAAISGLLVGYELGLISGALLQIRTLLALTCHEQEMVVSSLLIGAFLASLTGGVLIDRYGRRLAIILSSCLLGLGSLVLIMSLSYTLLIMGRVAIGVSISLSSIATCVYIAEIAPQHRRGLLVSLNELMIVTGILFAYISNYAFANISNGWKYMFGLVIPLGVLQAIAMYFLPPSPRFLVMKGQEESAGKVLRKLRVISDTTEELTLIKSSLKDEYQYSFWDLFRSKDNMRTRILIGLTLVFFVQTTGQPNILFYASTVLKSVGFQSNEAASLASTGVGVVKVVSTIPATLLVDHIGSKTFLCIGSSVMSASLLTMGIVNLNINMNFTNICRSHSLLNQSLEEFVFYATGNLSISNSSLREHFKRITPYSKGSFMPMGNGMEPKGEMTFTSSLPNAGLSRTEHQGVTDTAVVPAAYKWLSLASLLVYVAAFSIGLGPMPWLVLSEIFPGGIRGRAMALTSSMNWGVNLLISLTFLTVTDLIGLSWVCFIYTIMSLASLAFVVLFIPETKGCSLEQISVELAKANYVKNNICFMSHHQEELVPTQLQKRKPQEQLPECNHLCGRGQSQRPSPDT
On to B2, for which the Michaelis-Menten constant (Km) in data set [1] worked out at 1245 µM.

One may read the Km as the concentration of substrate that gives half-maximal velocity.
